The values below come from the DeepSol protein solubility set.

This series in a line: soluble on expression in E. coli; label from the status in PepcDB or PDB records.
As to “SLAGETINFCKGWKFHLGDAGKGASSSSYNDSQWRILNIPHDWSIEGTYKQFENGTDWQSGFLPAGISWYRKTFTIPSKWKNKKVQILFEGVYLNSEVWINGHWLGKRPNGYISFVYDLTPYLQEGKNQIAVKVDHSKALTGRWYTGSGIYRPVYLLVSNPTHIPYSGIHFRSKLQNKQSATYTLSIEIETQEKKPIKVKTYLQAPNGSIADTSEKIFVSSADSLCFLSGSIRKPLLWSPDSPNVYTLICQLTRDNKILDECRLPVGFRQLEFNPVSGFLLNGKSLKIKGVCDHHTVGAVGAAVPDDLLHYRLKLLKDMGCNAIRTSHNPFSPAFYNLCDTMGIMVLNEGLDGWNQPKAADDYGNYFDEWWQKDMTDFIKRDRNHPSIIMWSIGNEVTGATPEIQHNLVSLFHQLDPDRPVTQGGTDPTRGMKTDYQKKFNYLDIIGFNGNGEEIGELEHFHKNYPTLCAIATEVPHTYQTRGVYRSQTQWRRRDFPAPWEKGNINWEQFKHRVFPIPDLTEKECFPEESDYPYYQSSYDNASVRISARKSWQRTCSFPWLMGEFRWGSFDYLGEAEWPQRCGNFGIIDIAAIPKDAYFLYQSLWTDKPMVHLLPHWTHPGKEGKTIPVVIYTNCDAVELFINNVSLGSKPYTGEQLIWLVPYSPGKIEARGIKKGKIVATDCYQSAEAPHSVALASNKYSVKAGSDEVIRIEIDITDKNGIPCPYASNELSFHVSGPLRLLGVDNGNPTDMFPYQQPHCRCFRGKCVVLLQSDEEKGKGTLTVQGTKLVEKKLIIEVIEG”, the “soluble on expression in E. coli” value was “soluble”.
The entry for “SLAVLGLGYAGLFKSQMESLEEYEAKETELKNTYKQKSIDAASLNNLRDELASIRSAFDIMLKQLPTDAEIPNLVQELHQAGSSNGLRLDSVMPQPPVDDGPIKRLPYSISITGNYEQISQFTRDVGSLSRIITLESLKIAQSPENGGNPDGKSSILNLSAIATTYQAKSVEELAAEAAQNAEQK” is “soluble”; for “SLDGILDHTMIRVEDLDASLEWYTTHLNYEEKGRWEAETFTNVYLGPEDAGDAAARLELTYNHDGRSYTMGDAWGHIAVRVPDVEAAYDELMQSGVEDYRPPAENPGYAFVTDPDGHEVEIVERDYGTKWSLDHTMLRVEDVNAALGYWIRTFEYEPTGRWEADSFANYFVSPQDAPAEAMDIELTYNYDGRSYTMGDAWGHVAVRCADLQSAWETLQEREAPDYRDPESCDNRYAFTKAPDGHEIEILPTEEG” it is “not soluble”.
Consider “SLETFHFNYTLISICIYLYIYDGSFISLSEDHKPYNKKEKERIYKIGGFVENGRILGYIGVSRSFGDKNYKIKSDCPYNPHETMISCIPDIKIFYANCDDILFLGCDGLFEMLSWNDVAKFTYDCMNRHTLSDAVINILDYALLSGSKDNITIQIIKFFNE”, for which the “soluble on expression in E. coli” value is “soluble”.
With “SLGQRPPIRRIVIDAAIPTKGITIVDVAKELYKVEGVKAVRITVDDVDVDVLGLAIVVEGVDIDYNELEDVLEKVGGVVHSVDEVVVGEYIPEAGRTA”, the “soluble on expression in E. coli” value is on record as “soluble”.
As for “SLIDTHCHLDLYPKPGTVIAEADKRGMFVIAVTTTPKAFLGNIRMTEGKKRIRVAVGLHPELVAERHREVEDVCKLMAKTKYVGEIGIDGSPPHKSSIKLQTEVFARFLTRASELGGKVLSIHSRGAAALVLDEIERNGHGTLPILHWFSGSKQQVERAAKLGCWFSVGPAMLRSRKGRELLASMPRHRLLTETDGPFATDVDRPLMPWDVSMALPAIADVWGTTPVGVDQVVSANFRELINATEQGRAAAKLVGNC”, the “soluble on expression in E. coli” value is “not soluble”.
The entry for “SLIENSHVKKDDIWPSGGQMTVKDLTAKYTEGGNAILENISFSISPGQRVGLLGRTGSGKSTLLSAFLRLLNTEGEIQIDGVSWDSITLEQWRKAFGVIPQKVFIFSGTFRKNLDPYEQWSDQEIWKVADEVGLRSVIEQFPGKLDFVLVDGGCVLSHGHKQLMCLARSVLSKAKILLLDEPSAHLDPVTYQIIRRTLKQAFADCTVILCEARIEAMLECDQFLVIEENKVRQYDSILRLYHYPADRFVAGFIGSPKMNFLPVKVTATAIDQVQVELPMPNRQQVWLPVESRDVQVGANMSLGIRPEHLLPSDIADVILEGEVQVVEQLGNETQIHIQIPSIRQNLVYRQNDVVLVEEGATFAIGLPPERCHLFREDGTACRRLHKEPGV” is “not soluble”; for “SLIFGKIDYINLLPLHIYLKKYPLPNGYKASMEYKKGVPSKLNKDLFYRRIDAAIISSIESARKKYKNLDLGICANKRVLSVLVEKNTSNAKDPSSATSNALAKVLKQDGKVIIGDKALKLYLKDPSKYIDLCAKWHEKTGLPFVFARFSCVQKKALYKQILKKFPKTKIKIPYYILQKYAKTRDLDVKDVRYYLDEVIYHKISTKEKTALKRFVKACKALNLA” it is “soluble”.
